Assays:
[1] = biological target: T1, circularly permuted human TfR apical domain (human); assay: SPR, supernatant, anti-Fab capture
T1 construct: TfR residues 326-379 stand N-terminal to 194-296, loop 297-325 deleted; also called huTfR Apical Domain
T1 chain: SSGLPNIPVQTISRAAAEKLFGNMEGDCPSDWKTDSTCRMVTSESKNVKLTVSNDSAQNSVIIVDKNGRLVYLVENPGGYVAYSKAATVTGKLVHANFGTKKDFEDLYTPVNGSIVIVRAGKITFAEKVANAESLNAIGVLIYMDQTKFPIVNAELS
Procedure: (§1) Clones were expressed in HEK293 cells. Supernatants were captured for SPR by GE Healthcare anti-human Fab capture kit and the affinity to human and cyno TfR apical domain was measured (Table 30). The clones in Table 30 were bivalent and each TfR-binding Fc polypeptide also contained P329G and LALA mutations.

[2] = biological target: T2, circularly permuted cyno TfR apical domain (cynomolgus monkey); assay: SPR, supernatant, anti-Fab capture
T2 construct: same design as the human construct; also called cyTfR Apical Domain; cynomolgus TfR apical domain
T2 chain: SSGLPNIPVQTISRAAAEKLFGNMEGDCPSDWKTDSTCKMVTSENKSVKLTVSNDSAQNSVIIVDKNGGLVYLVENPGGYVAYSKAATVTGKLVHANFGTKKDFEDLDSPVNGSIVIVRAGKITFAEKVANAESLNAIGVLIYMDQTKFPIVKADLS
Procedure: as §1

B1: 42.8.15 (Fc fusion)
chain: APEAAGGPSVFLFPPKPKDTLMISRTPEVTCVVVDVSHEDPEVKFNWYVDGVEVHNAKTKPREEQYNSTYRVVSVLTVLHQDWLNGKEYKCKVSNKALGAPIEKTISKAKGQPREPQVYTLPPSRDELTKNQVSLTCLVKGFYPSDIAVEWFSGAQKESNYKTTPPVLDSDGSFFLYSKLTVDKSRWQQGNLFACEVMHEALHNHYTYKLLSLSPGK
notes: bivalent; P329G+LALA
[1]
  Kd: 5.96 µM
[2]
  Kd: 27 µM

B2: 42.8.129 (Fc fusion)
chain: APEAAGGPSVFLFPPKPKDTLMISRTPEVTCVVVDVSHEDPEVKFNWYVDGVEVHNAKTKPREEQYNSTYRVVSVLTVLHQDWLNGKEYKCKVSNKALGAPIEKTISKAKGQPREPQVYTLPPSRDELTKNQVSLTCLVKGFYPSDIAVEWFYGASKESNYKTTPPVLDSDGSFFLYSKLTVDKSRWQQGNLFACEVMHEALHNHYTYKLLSLSPGK
notes: bivalent; P329G+LALA
[1]
  Kd: 0.858 µM
[2]
  Kd: 3.14 µM

B3: 42.8.111 (Fc fusion)
chain: APEAAGGPSVFLFPPKPKDTLMISRTPEVTCVVVDVSHEDPEVKFNWYVDGVEVHNAKTKPREEQYNSTYRVVSVLTVLHQDWLNGKEYKCKVSNKALGAPIEKTISKAKGQPREPQVYTLPPSRDELTKNQVSLTCLVKGFYPSDIAVEWFYGGQKESNYKTTPPVLDSDGSFFLYSKLTVDKSRWQQGNLFACEVMHEALHNHYTYKLLSLSPGK
notes: bivalent; P329G+LALA
[1]
  Kd: 1.88 µM
[2]
  Kd: 19.1 µM

B4: 42.8.164 (Fc fusion)
chain: APEAAGGPSVFLFPPKPKDTLMISRTPEVTCVVVDVSHEDPEVKFNWYVDGVEVHNAKTKPREEQYNSTYRVVSVLTVLHQDWLNGKEYKCKVSNKALGAPIEKTISKAKGQPREPQVYTLPPSRDELTKNQVSLTCLVKGFYPSDIAVEWFYDASKETNYKTTPPVLDSDGSFFLYSKLTVDKSRWQQGNLFACEVMHEALHNHYTYKLLSLSPGK
notes: bivalent; P329G+LALA
[1]
  Kd: 0.832 µM
[2]
  Kd: 7.45 µM

B5: 42.8.161 (Fc fusion)
chain: APEAAGGPSVFLFPPKPKDTLMISRTPEVTCVVVDVSHEDPEVKFNWYVDGVEVHNAKTKPREEQYNSTYRVVSVLTVLHQDWLNGKEYKCKVSNKALGAPIEKTISKAKGQPREPQVYTLPPSRDELTKNQVSLTCLVKGFYPSDIAVEWFYDAQKLTNYKTTPPVLDSDGSFFLYSKLTVDKSRWQQGNLFACEVMHEALHNHYTYKLLSLSPGK
notes: bivalent; P329G+LALA
[1]
  Kd: 1.14 µM
[2]
  Kd: 10.5 µM

B6: 42.8.80 (Fc fusion)
chain: APEAAGGPSVFLFPPKPKDTLMISRTPEVTCVVVDVSHEDPEVKFNWYVDGVEVHNAKTKPREEQYNSTYRVVSVLTVLHQDWLNGKEYKCKVSNKALGAPIEKTISKAKGQPREPQVYTLPPSRDELTKNQVSLTCLVKGFYPSDIAVEWFSEGSKETNYKTTPPVLDSDGSFFLYSKLTVDKSRWQQGNLFACEVMHEALHNHYTYKLLSLSPGK
notes: bivalent; P329G+LALA
[1]
  Kd: 2.38 µM
[2]
  Kd: 13.6 µM

B7: 42.8.165 (Fc fusion)
chain: APEAAGGPSVFLFPPKPKDTLMISRTPEVTCVVVDVSHEDPEVKFNWYVDGVEVHNAKTKPREEQYNSTYRVVSVLTVLHQDWLNGKEYKCKVSNKALGAPIEKTISKAKGQPREPQVYTLPPSRDELTKNQVSLTCLVKGFYPSDIAVEWFYDASKESNYKTTPPVLDSDGSFFLYSKLTVDKSRWQQGNLFACEVMHEALHNHYTYKLLSLSPGK
notes: bivalent; P329G+LALA
[1]
  Kd: 1.03 µM
[2]
  Kd: 4.46 µM

B8: 42.8.147 (Fc fusion)
chain: APEAAGGPSVFLFPPKPKDTLMISRTPEVTCVVVDVSHEDPEVKFNWYVDGVEVHNAKTKPREEQYNSTYRVVSVLTVLHQDWLNGKEYKCKVSNKALGAPIEKTISKAKGQPREPQVYTLPPSRDELTKNQVSLTCLVKGFYPSDIAVEWFYDGQKESNYKTTPPVLDSDGSFFLYSKLTVDKSRWQQGNLFACEVMHEALHNHYTYKLLSLSPGK
notes: bivalent; P329G+LALA
[1]
  Kd: 3.51 µM
[2]
  Kd: 8.03 µM

B9: 42.8.65 (Fc fusion)
chain: APEAAGGPSVFLFPPKPKDTLMISRTPEVTCVVVDVSHEDPEVKFNWYVDGVEVHNAKTKPREEQYNSTYRVVSVLTVLHQDWLNGKEYKCKVSNKALGAPIEKTISKAKGQPREPQVYTLPPSRDELTKNQVSLTCLVKGFYPSDIAVEWFSDDQKLTNYKTTPPVLDSDGSFFLYSKLTVDKSRWQQGNLFACEVMHEALHNHYTYKLLSLSPGK
notes: bivalent; P329G+LALA
[1]
  Kd: 3.94 µM
[2]
  Kd: 10.3 µM

B10: 42.8.134 (Fc fusion)
chain: APEAAGGPSVFLFPPKPKDTLMISRTPEVTCVVVDVSHEDPEVKFNWYVDGVEVHNAKTKPREEQYNSTYRVVSVLTVLHQDWLNGKEYKCKVSNKALGAPIEKTISKAKGQPREPQVYTLPPSRDELTKNQVSLTCLVKGFYPSDIAVEWFYGDQKETNYKTTPPVLDSDGSFFLYSKLTVDKSRWQQGNLFACEVMHEALHNHYTYKLLSLSPGK
notes: bivalent; P329G+LALA
[1]
  Kd: 1.24 µM
[2]
  Kd: 13.2 µM

B11: 42.8.93 (Fc fusion)
chain: APEAAGGPSVFLFPPKPKDTLMISRTPEVTCVVVDVSHEDPEVKFNWYVDGVEVHNAKTKPREEQYNSTYRVVSVLTVLHQDWLNGKEYKCKVSNKALGAPIEKTISKAKGQPREPQVYTLPPSRDELTKNQVSLTCLVKGFYPSDIAVEWFSEASKESNYKTTPPVLDSDGSFFLYSKLTVDKSRWQQGNLFACEVMHEALHNHYTYKLLSLSPGK
notes: bivalent; P329G+LALA
[1]
  Kd: 5 µM
[2]
  Kd: 17.6 µM

B12: 42.8.142 (Fc fusion)
chain: APEAAGGPSVFLFPPKPKDTLMISRTPEVTCVVVDVSHEDPEVKFNWYVDGVEVHNAKTKPREEQYNSTYRVVSVLTVLHQDWLNGKEYKCKVSNKALGAPIEKTISKAKGQPREPQVYTLPPSRDELTKNQVSLTCLVKGFYPSDIAVEWFYGDSKLNNYKTTPPVLDSDGSFFLYSKLTVDKSRWQQGNLFACEVMHEALHNHYTYKLLSLSPGK
notes: bivalent; P329G+LALA
[1]
  Kd: 0.665 µM
[2]
  Kd: 4.63 µM

B13: 42.8.78 (Fc fusion)
chain: APEAAGGPSVFLFPPKPKDTLMISRTPEVTCVVVDVSHEDPEVKFNWYVDGVEVHNAKTKPREEQYNSTYRVVSVLTVLHQDWLNGKEYKCKVSNKALGAPIEKTISKAKGQPREPQVYTLPPSRDELTKNQVSLTCLVKGFYPSDIAVEWFSEGQKLSNYKTTPPVLDSDGSFFLYSKLTVDKSRWQQGNLFACEVMHEALHNHYTYKLLSLSPGK
notes: bivalent; P329G+LALA
[1]
  Kd: 0.972 µM
[2]
  Kd: 6.74 µM

B14: 42.8.160 (Fc fusion)
chain: APEAAGGPSVFLFPPKPKDTLMISRTPEVTCVVVDVSHEDPEVKFNWYVDGVEVHNAKTKPREEQYNSTYRVVSVLTVLHQDWLNGKEYKCKVSNKALGAPIEKTISKAKGQPREPQVYTLPPSRDELTKNQVSLTCLVKGFYPSDIAVEWFYDAQKLNNYKTTPPVLDSDGSFFLYSKLTVDKSRWQQGNLFACEVMHEALHNHYTYKLLSLSPGK
notes: bivalent; P329G+LALA
[1]
  Kd: 1.05 µM
[2]
  Kd: 11.6 µM

B15: 42.8.170 (Fc fusion)
chain: APEAAGGPSVFLFPPKPKDTLMISRTPEVTCVVVDVSHEDPEVKFNWYVDGVEVHNAKTKPREEQYNSTYRVVSVLTVLHQDWLNGKEYKCKVSNKALGAPIEKTISKAKGQPREPQVYTLPPSRDELTKNQVSLTCLVKGFYPSDIAVEWFYDDQKETNYKTTPPVLDSDGSFFLYSKLTVDKSRWQQGNLFACEVMHEALHNHYTYKLLSLSPGK
notes: bivalent; P329G+LALA
[1]
  Kd: 1.15 µM
[2]
  Kd: 11.9 µM

B16: 42.8.72 (Fc fusion)
chain: APEAAGGPSVFLFPPKPKDTLMISRTPEVTCVVVDVSHEDPEVKFNWYVDGVEVHNAKTKPREEQYNSTYRVVSVLTVLHQDWLNGKEYKCKVSNKALGAPIEKTISKAKGQPREPQVYTLPPSRDELTKNQVSLTCLVKGFYPSDIAVEWFSDDSKLSNYKTTPPVLDSDGSFFLYSKLTVDKSRWQQGNLFACEVMHEALHNHYTYKLLSLSPGK
notes: bivalent; P329G+LALA
[1]
  Kd: 2.71 µM
[2]
  Kd: 13.4 µM

B17: 42.8.140 (Fc fusion)
chain: APEAAGGPSVFLFPPKPKDTLMISRTPEVTCVVVDVSHEDPEVKFNWYVDGVEVHNAKTKPREEQYNSTYRVVSVLTVLHQDWLNGKEYKCKVSNKALGAPIEKTISKAKGQPREPQVYTLPPSRDELTKNQVSLTCLVKGFYPSDIAVEWFYGDSKETNYKTTPPVLDSDGSFFLYSKLTVDKSRWQQGNLFACEVMHEALHNHYTYKLLSLSPGK
notes: bivalent; P329G+LALA
[1]
  Kd: 0.664 µM
[2]
  Kd: 5.23 µM

B18: 42.8.145 (Fc fusion)
chain: APEAAGGPSVFLFPPKPKDTLMISRTPEVTCVVVDVSHEDPEVKFNWYVDGVEVHNAKTKPREEQYNSTYRVVSVLTVLHQDWLNGKEYKCKVSNKALGAPIEKTISKAKGQPREPQVYTLPPSRDELTKNQVSLTCLVKGFYPSDIAVEWFYDGQKENNYKTTPPVLDSDGSFFLYSKLTVDKSRWQQGNLFACEVMHEALHNHYTYKLLSLSPGK
notes: bivalent; P329G+LALA
[1]
  Kd: 1.01 µM
[2]
  Kd: 11.4 µM

B19: 42.8.79 (Fc fusion)
chain: APEAAGGPSVFLFPPKPKDTLMISRTPEVTCVVVDVSHEDPEVKFNWYVDGVEVHNAKTKPREEQYNSTYRVVSVLTVLHQDWLNGKEYKCKVSNKALGAPIEKTISKAKGQPREPQVYTLPPSRDELTKNQVSLTCLVKGFYPSDIAVEWFSEGSKENNYKTTPPVLDSDGSFFLYSKLTVDKSRWQQGNLFACEVMHEALHNHYTYKLLSLSPGK
notes: bivalent; P329G+LALA
[1]
  Kd: 3.07 µM
[2]
  Kd: 28.6 µM

B20: 42.8.122 (Fc fusion)
chain: APEAAGGPSVFLFPPKPKDTLMISRTPEVTCVVVDVSHEDPEVKFNWYVDGVEVHNAKTKPREEQYNSTYRVVSVLTVLHQDWLNGKEYKCKVSNKALGAPIEKTISKAKGQPREPQVYTLPPSRDELTKNQVSLTCLVKGFYPSDIAVEWFYGAQKETNYKTTPPVLDSDGSFFLYSKLTVDKSRWQQGNLFACEVMHEALHNHYTYKLLSLSPGK
notes: bivalent; P329G+LALA
[1]
  Kd: 3.91 µM
[2]
  Kd: 9.84 µM

Reference: patent US20250145729A1 (DENALI THERAPEUTICS, published 2025)
